Biological target: HLA-B*44:05 (Homo sapiens, UniProt P01889, A223V/A65T/A93T/A95T/D201E/D98Y/E176V/E187L/E204Q/E69K/G107R/H137Y/K202T/L105A/L119I/N104T/N87E/Q56L/Q94N/R106L/R155S/R180D/S101N/S121R/S35A/S48T/T118I/V36M/W191S/Y91S)
Assay: MHC binding assay (UV-ligand exchange, β2m ELISA, peptide exchange yield)
Details: binding to HLA-B*44:05
In short: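 Peptide–HLA complexes formed by UV-ligand exchange of a UV-cleavable peptide for the test peptide. Exchange yield measured by β2m ELISA: complexes diluted 100-fold and captured on streptavidin, detected with HRP anti-β2m and TMB, read at 450 nm. Quantified against refolded HLA-A*02:01/MLA-001 monomer standards, 15-500 ng/ml.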

Substance | Peptide exchange (MHC class I binding score, peptide exchange yield)
319 (YEWEPFAEV; listed as Homo sapiens) [compound 319] | + (>10% = +)
320 (AENPLNIFY; listed as Homo sapiens) [compound 320] | ++++ (>75% = ++++)
323 (SETAVVNVTY; listed as Homo sapiens) [compound 323] | ++++ (>75% = ++++)
325 (AEQEIMKKV; listed as Homo sapiens) [compound 325] | ++++ (>75% = ++++)
327 (SEQHSLPVF; listed as Homo sapiens) [compound 327] | +++ (>50 = +++)
331 (KELEATKQYL; listed as Homo sapiens) [compound 331] | +++ (>50 = +++)
333 (SEGTLPYSY; listed as Homo sapiens) [compound 333] | ++ (>20% = ++)
335 (SETPTLQGL; listed as Homo sapiens) [compound 335] | +++ (>50 = +++)
337 (VEVIPEGAML; listed as Homo sapiens) [compound 337] | +++ (>50 = +++)
338 (AEMKFYVVI; listed as Homo sapiens) [compound 338] | +++ (>50 = +++)
339 (NEVKEIKGY; listed as Homo sapiens) [compound 339] | +++ (>50 = +++)
341 (HELESENKKW; listed as Homo sapiens) [compound 341] | +++ (>50 = +++)
342 (SENKKWVEF; listed as Homo sapiens) [compound 342] | ++ (>20% = ++)
346 (EEIENLQAQF; listed as Homo sapiens) [compound 346] | ++ (>20% = ++)
347 (LENPHVQSV; listed as Homo sapiens) [compound 347] | +++ (>50 = +++)
349 (LEWQHPSSW; listed as Homo sapiens) [compound 349] | ++++ (>75% = ++++)
350 (EEMLENVSL; listed as Homo sapiens) [compound 350] | +++ (>50 = +++)
351 (EEGRVYVY; listed as Homo sapiens) [compound 351] | ++ (>20% = ++)
352 (QEDELVKIRKY; listed as Homo sapiens) [compound 352] | +++ (>50 = +++)

Substance | Peptide exchange (MHC class I binding score, peptide exchange yield)
354 (TEIMEKTTL; listed as Homo sapiens) [compound 354] | +++ (>50 = +++)
356 (TEAVLNRY; listed as Homo sapiens) [compound 356] | ++ (>20% = ++)
358 (TEFHGGLHY; listed as Homo sapiens) [compound 358] | +++ (>50 = +++)
359 (NEFRRKLTF; listed as Homo sapiens) [compound 359] | +++ (>50 = +++)
360 (DEMENLLTY; listed as Homo sapiens) [compound 360] | ++++ (>75% = ++++)
361 (EDASLMGLY; listed as Homo sapiens) [compound 361] | ++ (>20% = ++)
362 (SEVEYINKY; listed as Homo sapiens) [compound 362] | +++ (>50 = +++)
363 (EECDKAFHF; listed as Homo sapiens) [compound 363] | +++ (>50 = +++)
364 (EECDKAYSF; listed as Homo sapiens) [compound 364] | ++ (>20% = ++)
366 (EECGKAFKKF; listed as Homo sapiens) [compound 366] | +++ (>50 = +++)
367 (TEFAVKLKI; listed as Homo sapiens) [compound 367] | +++ (>50 = +++)
368 (KEKVPGITI; listed as Homo sapiens) [compound 368] | +++ (>50 = +++)
369 (KELEERMLHW; listed as Homo sapiens) [compound 369] | ++++ (>75% = ++++)
372 (EEYKFPSLF; listed as Homo sapiens) [compound 372] | +++ (>50 = +++)
376 (SESDGIEQL; listed as Homo sapiens) [compound 376] | +++ (>50 = +++)
377 (AEDARGWTA; listed as Homo sapiens) [compound 377] | ++ (>20% = ++)
379 (AENRVGKMEA; listed as Homo sapiens) [compound 379] | ++ (>20% = ++)
380 (EECGKAFRVF; listed as Homo sapiens) [compound 380] | +++ (>50 = +++)
382 (SELNPLALY; listed as Homo sapiens) [compound 382] | +++ (>50 = +++)

Results, then the substance that gave them:

Peptide exchange (MHC class I binding score, peptide exchange yield) | Substance
+++ (>50 = +++) | 321 (AENPLNIFYI; listed as Homo sapiens) [compound 321]
+++ (>50 = +++) | 322 (REESDWHYL; listed as Homo sapiens) [compound 322]
+++ (>50 = +++) | 324 (QELSSIRQF; listed as Homo sapiens) [compound 324]
++++ (>75% = ++++) | 326 (RELLDFSSW; listed as Homo sapiens) [compound 326]
++ (>20% = ++) | 328 (HENGVLTKF; listed as Homo sapiens) [compound 328]
+++ (>50 = +++) | 329 (SEPQITVNF; listed as Homo sapiens) [compound 329]
+++ (>50 = +++) | 330 (SEHLFGTSY; listed as Homo sapiens) [compound 330]
++++ (>75% = ++++) | 332 (SEADWLRFW; listed as Homo sapiens) [compound 332]
+++ (>50 = +++) | 334 (LEWQNSSSM; listed as Homo sapiens) [compound 334]
++++ (>75% = ++++) | 336 (QEVNISLHY; listed as Homo sapiens) [compound 336]
+++ (>50 = +++) | 340 (GELAPSHGL; listed as Homo sapiens) [compound 340]
++++ (>75% = ++++) | 343 (SEFDLEQVW; listed as Homo sapiens) [compound 343]
++ (>20% = ++) | 344 (DEIRVFGY; listed as Homo sapiens) [compound 344]
+++ (>50 = +++) | 345 (AEYQAAILHL; listed as Homo sapiens) [compound 345]
++++ (>75% = ++++) | 348 (SEVLLTSISTF; listed as Homo sapiens) [compound 348]
++++ (>75% = ++++) | 353 (AETEEGIYW; listed as Homo sapiens) [compound 353]
++ (>20% = ++) | 355 (SETSTGTSV; listed as Homo sapiens) [compound 355]
+++ (>50 = +++) | 357 (AELMDKPLTF; listed as Homo sapiens) [compound 357]
++++ (>75% = ++++) | 365 (NESGKAFNY; listed as Homo sapiens) [compound 365]
+++ (>50 = +++) | 370 (EEVLLANALW; listed as Homo sapiens) [compound 370]
++++ (>75% = ++++) | 371 (NEIGQELTGQEW; listed as Homo sapiens) [compound 371]
++ (>20% = ++) | 373 (REDPIVYEI; listed as Homo sapiens) [compound 373]
+++ (>50 = +++) | 374 (NEAEWQEIL; listed as Homo sapiens) [compound 374]
+++ (>50 = +++) | 375 (HEATFGEKRF; listed as Homo sapiens) [compound 375]
+++ (>50 = +++) | 378 (QELFLQEVRM; listed as Homo sapiens) [compound 378]
++++ (>75% = ++++) | 381 (QELMAFSFAGL; listed as Homo sapiens) [compound 381]
+++ (>50 = +++) | 383 (EEMERDLDMY; listed as Homo sapiens) [compound 383]
+++ (>50 = +++) | 384 (LDGIPTAGW; listed as Homo sapiens) [compound 384]
++++ (>75% = ++++) | 385 (LEHPFLVNLW; listed as Homo sapiens) [compound 385]
